Laboratory results as given in the supplement of paper PMC12636428.

Test system: Saccharomyces cerevisiae
Assay: transcriptional activation domain activity (GFP:mCherry ratio, weighted mean of sorted bins, harmonized to initial dataset scale) (arbitrary fluorescence ratio units); higher = stronger transcriptional activation
Conditions: beta-estradiol 1 µM; induction time 4 h
How it was run: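 For this assay, yeast diploids with a GFP reporter carried barcoded protein tiles at URA3, each fused to an estradiol-inducible synthetic transcription factor. Induction was a 1:5 dilution into SC with 1 uM beta-estradiol for 4 hours at 30 °C, followed by sorting into 8 bins by GFP:mCherry ratio and barcode sequencing. Tiles under 50 reads were dropped, and activation activity was calculated as the read-weighted mean of bin median fluorescence, averaged across barcodes and linearly mapped onto the initial dataset scale.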

Row | Sequence | transcriptional activation domain activity
1 | LNVLLGFLLLCFPNLERMVLNFGTVIAGPNHPGTLRKGYCEHCKLGVNVLEFD | 62000
2 | LNVQLVYLIHSVLSIVIDFTFKRVEGDMDEWVVSGFSDRFERRITFARLYCNK | 49000
3 | LNWYFLGTFMYFLYGESIIYYFKHVLLVDRILLPLATHHRFISFMLYIIGFVF | 74300
4 | LNWYWLASTMYFLYGESVIYYFKHIVLVDKVLLPLATHHRFISFLLYLMGFVF | 93000
5 | LNWYWLATTMYFLYGESVIYYFKHIVLVDKVLLPLATHHRFISFILYVFGFVF | 71900
6 | LNWYWLTTTMYFLYGESMLFYFKHIVLVGSVLTPLATHHRFISFTLYIFGFIF | 42000
7 | LNYRKDIDAWHKSLMGTLARGPTLWTFWILSCLDKECFWNWQCYLGYMWPGLF | 72100
8 | LPDKGKSTEIMTSKLVGRHEFLPVPDFEDQIRRLYENLLISLLSDTQLLIVAW | 55800
9 | LPDLQWLVKFLVVAAHETGKNIVCRRAPGNLLSGNLVTLVSNVVLQRSPKRSY | 47900
10 | LPFYFFLHCTLSMIPSIHSPSFLQSYICFMLIPPLPLMFIVVFHPLYFFWLFL | 15000
11 | LPGGKYLFMVMKNNGGGSEKFALVLFDVEAQMTLLKASRILLLRARYITPKTT | 51400
12 | LPHFPIIHPSLLDLDLDSLQRYTNEDGYDDAENAQLFDRLSQGTDKEYDYEHY | 71500
13 | LPKDANLCFGKDFLAMYFYCTAVPTLFMFMVSERLYNALMQLAVFLLLCILHL | 65000
14 | LPLIQRFLIIAPAVIFYSYVYIVPTARRLQLRVCIRNWLGRWYVHLPVLSRSH | 57400
15 | LPLLHRELFLKKYFEPIYGPWNPNIALASDQTGINSAFEIPITSAFSAHTEPK | 41700
16 | LPLYILSLLCCFFIIAMFWKVTIPFFLIFPSFFMLSCFHLYFSFSPSRWCILN | 38600
17 | LPLYNFVRQHLCVFLDRYEHMLTRFLTLGNIMVVSSAVRRGAYWHLLETCQHT | 50200

Row | Sequence | transcriptional activation domain activity
18 | LPNFLKLGLTTLYSAIGFDEWPSDAVKWAYYFSNIRMVRSWSSWDLYQHLVPW | 45500
19 | LPNVCLILPVYLRALVLNTLQVDKDQRTLLYESIRGHIVTLRGCKTGSKVIWL | 60800
20 | LPQMGVPGEPLTLLVEFADMLIEMWHQCLAQRYYGPIYHLVALIVYTLELNAT | 54200
21 | LPRFFFLSFYTFLLIFPLLHLFHHLSLLFSPPILLYSSLILFFSHFLPLLLFL | 38900
22 | LPSFLFSSLYCFSLLFLSFLSFFPFLTLLLLFSLFPSLSLSLFFSLLFSPQRL | 63400
23 | LPSLAQIDVLIRRERMVTIERHPLCLSLVVASQYTLGPLLLLRIVHCIYKTYG | 58200
24 | LPSSLLFLLPHLFPTLPLLPSIPLLTPSSSSLFFHLICLYCPPFAFWAWFWFW | 55900
25 | LPTGSLLPGVGPLRSLIFDLELTRHIVDAYDLYDILFHPRTLPLLCHLTYLHI | 41800
26 | LPTINTAIPTAAVPQQNIAPPFLNTNSSATDSNPNTNLEDSLFFDHDLLSSSI | 49800
27 | LPTKYRVLDGLFQALAVRAGGFYVVTIANLRQGLLYVSAYPVTLTMRNTNVYE | 48900
28 | LPTNPTTHPLLFSAIHFFIYNVGDLLGRYICSFSCFIIWSQPMLLGLSLARVV | 77600
29 | LPTSFLEYCFRLICLWKPHLIREYFKEWFIFPNVVGWKYILQTFFNILEHVHD | 46600
30 | LPVYQLSVSPWKSKEAMDAWCMAKIESLLLDFKFLNAWVQLLVANNLQQIHIP | 63900
31 | LQAAAALESNTADGEDTNMETEEDKSGADGRSVYVGNVGYRFAVLLASNQVDY | 36600
32 | LQAARSADIAISQFRYLKKLLLVHGAWSYRRLATLILYSFYKNVVLYMTQFWF | 65100
33 | LQAMLLLAHMILAIPFFSLFCRLLLLHPTNPDSPVLWMSLHVFFTYLWSLALV | 66000
34 | LQASREEIRKKVSEDDHGLTRFRRQVVLALDLYIWEPICISLRFLRLVMIFVP | 52400
